Patent US20260055195A1 (COUNCIL OF THE QUEENSLAND INSTITUTE OF MEDICAL RESEARCH, published 2026)

Assays:
[1] = target: T1, EphA3 expressed on tumour cell lines (LK63, U251, D270) (UniProt P29320 21-983); assay: flow cytometry, subclone supernatant on LK63 cells
T1 construct: whole, on cells; also called EphA3 on LK63 cells; EphA3 on U251 cells
T1 sequence (looked up): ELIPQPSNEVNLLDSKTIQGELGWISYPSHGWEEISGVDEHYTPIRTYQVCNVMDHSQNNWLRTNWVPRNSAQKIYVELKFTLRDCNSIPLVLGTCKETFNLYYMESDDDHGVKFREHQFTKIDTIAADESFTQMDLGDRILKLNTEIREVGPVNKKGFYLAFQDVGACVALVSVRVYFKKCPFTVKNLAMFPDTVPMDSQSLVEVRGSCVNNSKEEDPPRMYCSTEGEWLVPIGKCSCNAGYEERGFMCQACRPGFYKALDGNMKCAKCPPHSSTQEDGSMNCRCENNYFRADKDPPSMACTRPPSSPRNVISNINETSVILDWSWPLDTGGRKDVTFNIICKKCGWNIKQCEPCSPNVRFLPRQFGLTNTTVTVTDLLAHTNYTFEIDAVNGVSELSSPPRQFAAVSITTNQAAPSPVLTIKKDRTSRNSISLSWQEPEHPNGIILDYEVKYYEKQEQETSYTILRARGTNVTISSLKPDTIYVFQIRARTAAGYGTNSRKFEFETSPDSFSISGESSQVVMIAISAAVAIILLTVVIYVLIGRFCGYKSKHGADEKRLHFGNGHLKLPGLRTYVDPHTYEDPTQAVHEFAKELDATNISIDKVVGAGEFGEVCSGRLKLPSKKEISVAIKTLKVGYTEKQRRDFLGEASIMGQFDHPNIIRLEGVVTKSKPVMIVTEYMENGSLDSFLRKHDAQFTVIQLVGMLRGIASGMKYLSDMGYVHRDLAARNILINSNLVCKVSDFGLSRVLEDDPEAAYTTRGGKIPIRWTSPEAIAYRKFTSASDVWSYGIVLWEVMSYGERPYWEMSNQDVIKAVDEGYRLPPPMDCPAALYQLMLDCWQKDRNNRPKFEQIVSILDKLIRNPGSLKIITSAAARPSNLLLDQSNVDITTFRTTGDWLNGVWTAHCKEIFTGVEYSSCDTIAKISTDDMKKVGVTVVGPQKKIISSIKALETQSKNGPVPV

[2] = target: T1, EphA3 expressed on tumour cell lines …; assay: flow cytometry on glioma cell lines D270 and U251

B1: Clone 2D4-1 anti-EphA3 monoclonal antibody (antibody, V domains shown)
VH: QVHLKESGPGLVAPSQSLSITCTVSGFSLTGYGVNWIRQPPGKNLEWLGMIWGDGSTDYNSVLKSRLSISKDNAKSQVFLEMNSLQTDDTANYYCARDRGISYYYAMDYWGQGTSVTVSS
VL: DIVLTQSPASLAVSLGQRATISCRASKSVSASGYSYLHWYQQKPGQPPKLLIFLAYNLGSGVPARFSGSGAGTDFTLNIHPVEEEDAATYYCQHSREFPLTFGAGTKLELK
notes: Mouse hybridoma monoclonal, screened as subclone supernatant
B1: binds [1].

B2: Clone 3C3-1 anti-EphA3 monoclonal antibody (antibody, V domains shown)
VH: QVQLQQSGAELARPGASVKMSCKSSGYTFTIYTIHWVKQRPGQGLEWIGYINPSSDYTNYNQKFKDKATLTADKSSTTAYMQLSSLTSEDSAVYYCVREGAYGNYDFAMDYWGQGTSVTVSS
VL: DVLMTQTPLSLPVSLGDQASISCRSSQNIVHNNGNTYLEWYLQKPGQSPKLLIYKVSNRFSGVPDRFSGSGSGTDFTLKISRVEAEDLGVYYCFQTSHVPYTFGGGTKLEIK
notes: as for B1
B2: binds [2].
